Assay [1] deals with clientized Thr1273Glu SARS-CoV-2 S tail heptapeptide (1267Gly-Val-Lys-Leu-His-Tyr-Glu1273) (SARS-CoV-2). Description: BLI; […]; pH 6.5 ([…]; 25 °C; Octet RED96; […]. A general note: BLI is a label-free optical method that tracks binding on a fibre tip over time.
Assay [2] addresses wild-type SARS-CoV-2 S tail heptapeptide (1267Gly-Val-Lys-Leu-His-Tyr-Thr1273) (SARS-CoV-2). As to the kind of experiment: BLI; […]; pH 6.5 ([…]; 25 °C; Octet RED96; […].
Assay [3] deals with T1, β‘WD40 domain (β‘-COPI) (Saccharomyces cerevisiae, UniProt P41811).
T1 construct: strep-Hisx6-SUMO (N, cleaved yes); made in house; host or cells: E. coli BL21(DE3)pLysS
T1 sequence (P41811 1-304 limits assumed): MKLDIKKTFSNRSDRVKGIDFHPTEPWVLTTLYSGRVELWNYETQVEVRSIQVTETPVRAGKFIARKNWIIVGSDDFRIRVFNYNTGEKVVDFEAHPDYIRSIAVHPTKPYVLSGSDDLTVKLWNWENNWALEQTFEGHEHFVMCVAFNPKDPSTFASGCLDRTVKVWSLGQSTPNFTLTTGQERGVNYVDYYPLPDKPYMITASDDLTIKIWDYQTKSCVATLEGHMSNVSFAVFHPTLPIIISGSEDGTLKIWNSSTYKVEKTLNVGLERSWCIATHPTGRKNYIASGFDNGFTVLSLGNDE
As to the kind of experiment: biochemical. It counts as binding, S. cerevisiae. The conditions noted are these: pH 6.5.

Assay [4] addresses T2, αWD40 Arg13Ala mutant (Schizosaccharomyces pombe, UniProt Q96WV5, R13A).
T2 construct: strep-tag (C); made in house; host or cells: Expi293 cells
T2 sequence (Q96WV5 1-327 R13A limits assumed): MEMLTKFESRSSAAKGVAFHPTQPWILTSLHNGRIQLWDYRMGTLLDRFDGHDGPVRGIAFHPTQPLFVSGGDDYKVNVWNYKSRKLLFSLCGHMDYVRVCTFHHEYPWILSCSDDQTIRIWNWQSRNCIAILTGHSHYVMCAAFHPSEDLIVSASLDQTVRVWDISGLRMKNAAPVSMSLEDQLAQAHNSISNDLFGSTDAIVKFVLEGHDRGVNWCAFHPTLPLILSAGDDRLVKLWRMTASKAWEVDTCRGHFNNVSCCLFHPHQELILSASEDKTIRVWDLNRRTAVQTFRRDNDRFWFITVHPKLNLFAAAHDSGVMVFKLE
As to the kind of experiment: biochemical. The settings on record: pH 6.5. Type of assay: binding, S. pombe.

For assay [5], the target named is T3, αWD40 Arg300Ala mutant (Schizosaccharomyces pombe, UniProt Q96WV5, R300A).
T3 construct: strep-tag (C); made in house; host or cells: Expi293 cells
T3 sequence (Q96WV5 1-327 R300A limits assumed): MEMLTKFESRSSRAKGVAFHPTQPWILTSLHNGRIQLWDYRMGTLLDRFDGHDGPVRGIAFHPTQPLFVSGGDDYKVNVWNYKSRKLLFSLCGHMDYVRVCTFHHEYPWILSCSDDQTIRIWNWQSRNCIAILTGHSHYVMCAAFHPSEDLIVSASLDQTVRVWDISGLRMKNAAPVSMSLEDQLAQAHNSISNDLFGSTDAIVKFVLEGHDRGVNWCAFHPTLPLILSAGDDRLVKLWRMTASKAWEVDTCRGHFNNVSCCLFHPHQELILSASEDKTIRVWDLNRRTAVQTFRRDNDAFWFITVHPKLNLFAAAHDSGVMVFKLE
As to the kind of experiment: biochemical. The conditions noted are these: pH 6.5. It counts as binding, S. pombe.

Assay [6] concerns the target Thr1273Glu clientized S tail 21mer peptide (BLI) (SARS-CoV-2). Description: BLI; pH 7.
Assay [7] shares this target. As to the kind of experiment: BLI; […]; pH 6.5 ([…]; 25 °C; Octet RED96; […].
Assay [8] deals with amidated clientized Thr1273Glu S heptapeptide (SARS-CoV-2). Description: BLI; […]; pH 6.5 ([…]; 25 °C; Octet RED96; […].
Assay [9] concerns the target clientized GST-S tail fusion, Thr1273Asp (SARS-CoV-2). Description: pull-down.
Assay [10] has as its target clientized GST-S tail fusion, Thr1273Glu (SARS-CoV-2). As to the kind of experiment: pull-down.
The target of assay [11] is T4, S. cerevisiae β‘-COPI WD40 domain (β‘WD40), wild type (S. cerevisiae, UniProt P41811 1-301).
T4 sequence: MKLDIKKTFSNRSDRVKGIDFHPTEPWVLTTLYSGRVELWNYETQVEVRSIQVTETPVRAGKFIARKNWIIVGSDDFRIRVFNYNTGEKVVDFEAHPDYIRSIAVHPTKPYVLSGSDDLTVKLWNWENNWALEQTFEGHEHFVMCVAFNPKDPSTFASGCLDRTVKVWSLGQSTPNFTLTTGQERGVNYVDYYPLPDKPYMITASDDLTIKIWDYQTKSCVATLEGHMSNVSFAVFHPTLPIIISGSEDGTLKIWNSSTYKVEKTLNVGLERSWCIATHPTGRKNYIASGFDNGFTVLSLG
Description: BLI; […]; pH 6.5 ([…]; 25 °C; Octet RED96; […]. The conditions noted are these: both partners purified.

No end group written: not given here.

As a reminder, the Kd is the free concentration of one partner at which half of the binding sites on the other are occupied at equilibrium, for simple one-to-one binding. As a reminder, the koff is the rate constant with which the complex falls apart. Low values mean slow dissociation, high ones fast dissociation. Broadly, the kon is a measure of how fast the partners come together. Low values mean slower complex formation, high ones faster complex formation.

In [1], “αWD40 Arg300Ala mutant (domain or fragment)” had a Kd of 4.2 µM, a koff of 0.43 s⁻¹ and a kon of 137000 M⁻¹ s⁻¹. In assay [2], this molecule had a Kd of 3.6 µM, a koff of 0.81 s⁻¹ and a kon of 360000 M⁻¹ s⁻¹.

As for GVKLHYE [GVKLHYE], the koff in assay [3] is 1.27 ± 0.03 s⁻¹; in [4], 0.22 ± 0.008 s⁻¹; in assay [5] it was 0.43 ± 0.003 s⁻¹.

With “S. pombe α-COPI WD40 domain (αWD40), wild type (domain or fragment)”, the values for the Kd in [6], in [7] and in assay [8] were 100 nM, 100 nM and 2300 nM, respectively.

In the case of GVKLHYT [GVKLHYT], the results for the koff in [4] and in assay [5] were 0.38 ± 0.007 s⁻¹ and 0.81 ± 0.007 s⁻¹, respectively.

Take “αWD40 Arg13Ala mutant (domain or fragment)”: in assay [1], the Kd was 3 µM, the koff was 0.22 s⁻¹ and the kon worked out at 132000 M⁻¹ s⁻¹. In assay [2], the Kd was determined as 8.5 µM, the koff stood at 0.38 s⁻¹ and the kon came out at 148000 M⁻¹ s⁻¹.

In assay [9], “endogenous coatomer complex (mouse liver cytosol) (from UniProt Q8CIE6 1-1224; Q9JIF7 1-953; O55029 1-905; Q9QZE5 1-874; Q5XJY5 1-511; O89079 1-308; P61924 1-177)” showed a fold binding over the Lys-x-Lys-x-xCT dibasic mutant of 2 fold and a fold binding over the wild-type GST-S tail construct of 17 fold. In assay [10], this molecule gave a fold binding over the Lys-x-Lys-x-xCT dibasic mutant of 2 fold and a fold binding over the wild-type GST-S tail construct of 17 fold.

B1: clientized Thr1273Glu SARS-CoV-2 S tail heptapeptide (1267Gly-Val-Lys-Leu-His-Tyr-Glu1273) (peptide)
peptide: GVKLHYE
notes: also called GVKLHYE; clientized S heptapeptide
In [11], B1 displayed a Kd of 2300 ± 230 nM, a koff of 1.27 s⁻¹ and a kon of 2.42e+06 M⁻¹ s⁻¹.

These data come from paper PMC10724246 (Nature Communications, 2023).
